The values below come from PMC10341550, “Beta-Secretase 1 Recruits Amyloid-Beta Precursor Protein to ROCK2 Kinase, Resulting in Erroneous Phosphorylation and Beta-Amyloid Plaque Formation” (International Journal of Molecular Sciences, 2023).

The target of test [1] is Full-length ROCK2 protein (human ROCK2 1–1388) (human) (UniProt O75116). The test can be described thus: SPR; Biacore X, CM5; full-length ROCK2 amine-coupled (1700 RU); analyte 7 µM with 100 µM MgATP (15-fold molar excess); HBS-EP pH 7.4, 10 µL/min. (In general: SPR reads the build-up and loss of mass on a sensor chip optically.)
Sequence of Full-length ROCK2 protein (human ROCK2 1–1388) (human) (O75116 whole entry, the tested form may be a part): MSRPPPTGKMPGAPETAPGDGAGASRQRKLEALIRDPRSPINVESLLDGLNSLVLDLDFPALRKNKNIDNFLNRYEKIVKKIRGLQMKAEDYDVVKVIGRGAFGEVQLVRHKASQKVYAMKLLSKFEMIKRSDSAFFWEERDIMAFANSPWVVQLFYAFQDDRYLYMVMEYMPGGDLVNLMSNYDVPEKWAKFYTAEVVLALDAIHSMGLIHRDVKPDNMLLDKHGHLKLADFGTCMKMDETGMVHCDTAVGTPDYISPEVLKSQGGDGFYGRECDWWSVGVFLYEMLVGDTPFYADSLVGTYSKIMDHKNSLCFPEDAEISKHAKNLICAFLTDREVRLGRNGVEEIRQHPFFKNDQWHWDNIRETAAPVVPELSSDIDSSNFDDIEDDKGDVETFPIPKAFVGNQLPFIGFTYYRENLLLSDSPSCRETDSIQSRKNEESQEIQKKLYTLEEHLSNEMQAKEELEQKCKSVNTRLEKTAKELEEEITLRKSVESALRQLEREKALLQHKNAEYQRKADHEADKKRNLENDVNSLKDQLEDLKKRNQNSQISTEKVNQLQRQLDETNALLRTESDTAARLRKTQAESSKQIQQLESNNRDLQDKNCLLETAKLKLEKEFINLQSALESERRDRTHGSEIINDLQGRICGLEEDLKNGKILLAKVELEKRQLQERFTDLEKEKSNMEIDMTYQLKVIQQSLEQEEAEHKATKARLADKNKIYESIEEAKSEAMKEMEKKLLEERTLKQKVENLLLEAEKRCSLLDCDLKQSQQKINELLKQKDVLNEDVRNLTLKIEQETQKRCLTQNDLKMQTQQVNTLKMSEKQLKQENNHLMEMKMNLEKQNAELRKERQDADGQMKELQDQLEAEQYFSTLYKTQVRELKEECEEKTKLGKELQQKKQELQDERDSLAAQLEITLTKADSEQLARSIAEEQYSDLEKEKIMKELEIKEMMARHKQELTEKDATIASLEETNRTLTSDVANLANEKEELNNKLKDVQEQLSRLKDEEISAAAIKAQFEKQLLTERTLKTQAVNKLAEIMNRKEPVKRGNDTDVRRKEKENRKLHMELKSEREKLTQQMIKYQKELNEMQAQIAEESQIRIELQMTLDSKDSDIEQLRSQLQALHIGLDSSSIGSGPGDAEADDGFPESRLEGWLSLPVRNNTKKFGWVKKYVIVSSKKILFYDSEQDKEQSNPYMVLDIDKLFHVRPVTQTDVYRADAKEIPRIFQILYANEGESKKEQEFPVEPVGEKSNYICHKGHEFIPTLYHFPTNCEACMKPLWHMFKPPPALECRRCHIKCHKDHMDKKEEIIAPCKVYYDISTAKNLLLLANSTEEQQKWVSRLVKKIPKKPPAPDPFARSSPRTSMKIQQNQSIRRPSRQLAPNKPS
The target in test [2] is BACE1 cytoplasmic domain peptide (residues 479–501), N-terminally labelled with 5-FAM. The test can be described thus: fluorescence polarisation; direct titration: 50 nM fluorescein-labelled BACE1 peptide, dilution series of ROCK2; 20 mM Tris pH 8.0, 100 mM NaCl, 0.05% Brij35P, 2 mM DTT; 384-well plates. On the technique in general: Fluorescence polarisation rises when a labelled molecule tumbles more slowly, as on binding a larger partner.

Sequence of ROCK2 kinase domain (27–417) construct (O75116 27-417): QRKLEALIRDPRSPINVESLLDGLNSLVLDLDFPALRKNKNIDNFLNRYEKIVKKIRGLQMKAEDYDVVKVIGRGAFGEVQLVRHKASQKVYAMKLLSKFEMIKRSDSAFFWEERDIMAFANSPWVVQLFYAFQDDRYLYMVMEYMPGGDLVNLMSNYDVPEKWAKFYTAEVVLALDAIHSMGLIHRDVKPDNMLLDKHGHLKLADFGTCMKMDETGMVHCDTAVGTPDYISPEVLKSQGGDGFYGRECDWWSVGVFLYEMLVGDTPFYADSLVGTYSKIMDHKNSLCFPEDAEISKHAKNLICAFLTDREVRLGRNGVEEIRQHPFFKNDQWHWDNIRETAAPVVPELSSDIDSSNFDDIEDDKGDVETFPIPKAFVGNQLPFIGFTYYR
Sequence of Full-length ROCK2 protein (human ROCK2 1–1388) (O75116 whole entry): as the sequence (O75116 whole entry, the tested form may be a part) above

In test [1], “BACE1 cytoplasmic domain peptide (residues 479–501), free form” returned a percent of the theoretical signal of 50% and a response units of 11 RU.
As to “Full-length ROCK2 protein (human ROCK2 1–1388) (from UniProt O75116 1-1388) (enzyme)”, the Kd in test [2] is 18 µM.
“ROCK2 kinase domain (27–417) construct (from UniProt O75116 27-417) (domain or fragment)” had a Kd in test [2] of 18 µM.

For orientation: Kd means the constant that tells how readily two partners part at equilibrium. Low readings indicate tighter binding, high ones weaker binding.
